The source of these data is PMC6037002, “Drug targeting to decrease cardiotoxicity – determination of the cytotoxic effect of GnRH-based conjugates containing doxorubicin, daunorubicin and methotrexate on human cardiomyocytes and endothelial cells” (Beilstein Journal of Organic Chemistry, 2018).

For orientation: IC50 means the midpoint of a concentration-inhibition curve.

The test system of series [1] is human umbilical vein endothelial cells (HUVEC). As to the kind of experiment: Impedimetric measurement (xCELLigence SP), delta slope, HUVEC. The note with it: for delta slope (DS), short-term / delta slope (DS), long-term: HUVEC, three parallels; for delta slope (DS), short-term: 0–2 h; for delta slope (DS), long-term: 0–72 h; for Cardiotoxicity, HUVEC: grade +++/++/+/0, key not given, summary of impedimetric cytotoxicity; for cytotoxic effect on HUVEC, result in words: long-term (0–72 h), 10^−8–10^−6 mol/L, impedimetry, one-way ANOVA.

Series [2] relates to MCF-7 human breast adenocarcinoma cells. The note with it: MTT assay; cited from earlier work. The source says:
(§1) Table 1 Comparative study of cytotoxic effects and cardiotoxicity elicited by GnRH-based antitumor compounds (1–15) and reference substances (AN-152, Dox, Dau, Mtx). IC50 values show antitumor cytotoxic characteristics of the conjugates in human breast cancer (MCF-7), human colorectal adenocarcinoma (HT-29) and human acute monocytic leukemia (MM6) derived cell lines as representative tumor cells.
A general note: Formazan colour is commonly taken as a measure of viable cells.

Series [3] relates to human acute monocytic leukemia (MonoMac6) cells. The note with it: cited from earlier work.
Excerpt: as §1

The conditions of series [4]: cited from earlier work. The procedure:
The GnRH derivatives were prepared by solid phase peptide synthesis (SPPS) according to Fmoc/t-Bu strategy (Supporting Information File 2). Three drug molecules, doxorubicin (Dox), daunorubicin (Dau) and methotrexate (Mtx), were employed in the preparation of drug conjugates. Dox has three potential conjugation sites; i) a primary OH group at C-14 on the aglycone part, which is suitable for ester bond formation, ii) an oxo group at C-13 is available for the generation of an oxime linkage and iii) the amino group on the daunosamine sugar moiety, which can be used for amide bond formation. The d ...

Series [5] relates to primary human cardiac myocytes (HCM). Conditions: for delta slope (DS), short-term / delta slope (DS), long-term: HCM, three parallels; for delta slope (DS), short-term: 0–2 h; for delta slope (DS), long-term: 0–72 h; for cytotoxic effect on HCM, result in words: long-term (0–72 h), 10^−8–10^−6 mol/L (free drugs 10^−12–10^−6 mol/L), impedimetry, one-way ANOVA.
The test system of series [6] is HT-29 human colon adenocarcinoma cells. The note with it: MTT assay; cited from earlier work.
Excerpt: as §1

Like-named read-outs stand apart in the source and are kept apart here. Some results are limits rather than exact numbers.

In the case of “[^4N-MeSer]-GnRH-III(Dau=Aoa) [conjugate 6]”, the “delta slope (DS), short-term” value is given as 0.006 in series [1] (Table S4a, 10^-6 mol/L); 0.002 in series [1] (Table S4a, 10^-7 mol/L); 0.011 in series [1] (Table S4a, 10^-8 mol/L); 0.001 in series [5] (Table S4b, 10^-6 mol/L); -0.001 in series [5] (Table S4b, 10^-7 mol/L); -0.005 in series [5] (Table S4b, 10^-8 mol/L). Besides, the “delta slope (DS), long-term” value in series [1] (Table S4a, 10^-6 mol/L) is given as 0.001; in series [1] (Table S4a, 10^-7 mol/L) it was -0.001; in series [1] (Table S4a, 10^-8 mol/L) it was 0.001; in series [5] (Table S4b, 10^-6 mol/L), 0.001; in series [5] (Table S4b, 10^-7 mol/L), -0.002; in series [5] (Table S4b, 10^-8 mol/L), -0.002. In addition, the “Cardiotoxicity, HUVEC” value in series [1] was 0. The “cytotoxic effect on HUVEC, result in words” value (from here on “cytotoxic effect on HUVEC”) in series [1] is “completely lost the cytotoxic effect”. The results for the 50% inhibitory concentration (IC50) in series [2] and in series [3] were 10.6 ± 2.1 µM and > 1 µM, respectively. Moreover, the “enzymatic stability, result in words” value in series [4] was “increased the enzymatic stability”. The “Cardiotoxicity, HCM” value in series [5] (grade +++/++/+/0, key not given, summary of impedimetric cytotoxicity) was determined as 0. Moreover, the “cytotoxic effect on HCM, result in words” value in series [5] was “completely lost their cytotoxic effect”.

As to “[^4Lys(Ac)]-GnRH-III(Dau=Aoa) [conjugate 5]”, the “delta slope (DS), short-term” value in series [1] (Table S3a, 10^-6 mol/L) is 0.002; in series [1] (Table S3a, 10^-7 mol/L), 0.004; in series [1] (Table S3a, 10^-8 mol/L), -0.001; in series [5] (Table S3b, 10^-6 mol/L), -0.005; in series [5] (Table S3b, 10^-7 mol/L) it was -0.001; in series [5] (Table S3b, 10^-8 mol/L), -0.002. Also, the “delta slope (DS), long-term” value in series [1] (Table S3a, 10^-6 mol/L) is -0.001; in series [1] (Table S3a, 10^-7 mol/L), -0.001; in series [1] (Table S3a, 10^-8 mol/L) it was -0.001; in series [5] (Table S3b, 10^-6 mol/L) it was −0.003; in series [5] (Table S3b, 10^-7 mol/L), -0.001; in series [5] (Table S3b, 10^-8 mol/L), 0.001. In series [1], the “Cardiotoxicity, HUVEC” value came to 0. Also, the “cytotoxic effect on HUVEC” value in series [1] is “completely lost the cytotoxic effect”. In addition, the values for the IC50 in series [2], in series [3] and in series [6] were 3.1 ± 1.7 µM, 0.925 ± 0.07 µM and 7.4 ± 2.6 µM, respectively. Further, the “enzymatic stability, result in words” value in series [4] is “increased the enzymatic stability”.

“[^4Lys(Dau=Aoa)]-GnRH-III(Dau=Aoa) [conjugate 14]”: the “delta slope (DS), short-term” value in series [1] (Table S3a, 10^-6 mol/L) was 0.006; in series [1] (Table S3a, 10^-7 mol/L) it was -0.005; in series [1] (Table S3a, 10^-8 mol/L), 0.002; in series [5] (Table S3b, 10^-6 mol/L), -0.001; in series [5] (Table S3b, 10^-7 mol/L), -0.002; in series [5] (Table S3b, 10^-8 mol/L), 0.001. For the same substance, the “delta slope (DS), long-term” value in series [1] (Table S3a, 10^-6 mol/L) is reported as -0.001; in series [1] (Table S3a, 10^-7 mol/L), -0.001; in series [1] (Table S3a, 10^-8 mol/L), 0.001; in series [5] (Table S3b, 10^-6 mol/L), -0.002; in series [5] (Table S3b, 10^-7 mol/L), -0.001; in series [5] (Table S3b, 10^-8 mol/L), -0.0011. Besides, in series [1], the “Cardiotoxicity, HUVEC” value is given as 0. In addition, the “cytotoxic effect on HUVEC” value in series [1] is given as “completely lost the cytotoxic effect”. Also, the values for the IC50 in series [2], in series [3] and in series [6] were 2.9 ± 0.9 µM, 0.513 ± 0.04 µM and 6.8 ± 1 µM, respectively. In addition, the “cytotoxic effect on HCM, result in words” value in series [5] was “completely lost their cytotoxic effect”.

For GnRH-III(Dox=Aoa-GFLG) [conjugate 3], the “delta slope (DS), short-term” value is reported as -0.006 in series [1] (Table S2a, 10^-6 mol/L); -0.003 in series [1] (Table S2a, 10^-7 mol/L); -0.002 in series [1] (Table S2a, 10^-8 mol/L); -0.002 in series [5] (Table S2b, 10^-6 mol/L); 0.001 in series [5] (Table S2b, 10^-7 mol/L); 0.004 in series [5] (Table S2b, 10^-8 mol/L). Moreover, the “delta slope (DS), long-term” value in series [1] (Table S2a, 10^-6 mol/L, listed as 3) is given as -0.009; in series [1] (Table S2a, 10^-6 mol/L, listed as GnRH-III(Dox=Aoa-GFLG)), −0.009; in series [1] (Table S2a, 10^-7 mol/L), -0.001; in series [1] (Table S2a, 10^-8 mol/L), 0.0004; in series [5] (Table S2b, 10^-6 mol/L), −0.007; in series [5] (Table S2b, 10^-7 mol/L), -0.001. Further, the “delta slope (DS), long-term” value in series [5] (Table S2b, 10^-8 mol/L) came out at 0.002. In addition, the values for the IC50 in series [2], in series [3] and in series [6] were 5.4 ± 1.9 µM, 0.43 ± 0.04 µM and 46.1 ± 6.1 µM, respectively.
